In patent publication US9404087B2, “Insulin producing cells derived from pluripotent stem cells” (Kadimastem Ltd., priority 2010, dated 2016):

B1: Activin A: recombinant human Activin A (Preprotech), 100 ng/ml (protein, UniProt P08476 311-426, looked up)
Inhibin beta A chain: GLECDGKVNICCKKQFFVSFKDIGWNDWIIAPSGYHANYCEGECPSHIAGTSGSSLSFHSTVINHYRMRGHSPFANLKSCCVPTKLRPMSMLYYDDGQNIIKKDIQNMIVEECGCS
modifications: Inhibin beta A chain
B2: Noggin: Noggin (Preprotech) added at 100 ng/ml in step 5 (protein, UniProt Q13253 28-232, looked up)
Noggin: QHYLHIRPAPSDNLPLVDLIEHPDPIFDPKEKDLNETLLRSLLGGHYDPGFMATSPPEDRPGGGGGAAGGAEDLAELDQLLRQRPSGAMPSEIKGLEFSEGLAQGKKQRLSKKLRRKLQMWLWSQTFCPVLYAWNDLGSRFWPRYVKVGSCFSKRSCSVPEGMVCKPSKSVHLTVLRWRCQRRGGQRCGWIPIQYPIISECKCSC

Tests used:
Format in all cases: cell-based
human ES cells = test: Indirect immunofluorescence of definitive endoderm markers after Activin A treatment
Experimental: On day one, three wells of human ES cell colonies (grown on Corning 6×well plate for 4 days) detached by collagenase were collected into a 15 ml tube, and colonies washed twice by low speed centrifugation in differentiation medium A (DMEM/F12, 2% KOSR, 2 mM glutmine, 1×NEAA, 100 μM βMEtOH, 1 mM NaPyruvate and penicillin and streptomycin (PS)).
After all the hES clusters had been collected and washed, the clusters were suspended in 1.5 ml/well of differentiation medium A1, (i.e. differentiation medium A including 100 ng/ml recombinant human Activin A (Preprotech) and 25 ng/ml recombinant Wnt 3 (R&D), 2% knock-out serum replacement and 2 mg/ml bovine serum albumin (BSA, cell culture tested SIGMA)). 450-500 colonies/well were seeded in Costar 6×well plates which had been coated with 0.1% porcine gelatin (Sigma) 1 day before. Alternatively, about 3000 colonies were seeded on 10 cm diameter plates. Plates were left in the incubator (37° C., 5% CO2) for 2 days without medium change.
On day 3, the medium was changed to differentiation medium A2 (DMEM/F12, 2% KOSR, 2 mM glut, 1×NEAA, 100 μM βMEtOH, 1 mM NaPyr and 2% Fetal Calf Serum (FCS)) containing 100 ng/ml Activin A and 2 mg/ml BSA. At this stage, clusters still floated and many single cells were visible. The plates were tilted so that clusters fell to the bottom edge of the well and the old medium was removed leaving clusters in 300 μl medium that is completed with 1.2 ml of medium A2. The collected culture medium that contained a few clusters was centrifuged at 900 rpm for 5 minutes. The pellet was re-suspended in 1.5 ml medium A2 and added to one of the wells. On day 4, most clusters adhered to the plate and the culture medium was changed similarly as on day 3, to differentiation medium A3 (DMEM/F12, 2 mM glutamine, 1×NEAA, 100 μM βMEtOH, 1 mM NaPyr but with 0.2% FCS) that contained 100 ng/ml Activin A and 2 mg/ml BSA. Cells were left in the medium A3 for 2 days.
Cells were fixed (4% paraformaldehyde in Ca^2+ and Mg^2+ free PBS for 20 minutes), washed ×3 with PBS and blocked with 10% horse serum in PBS. The reaction with the primary antibody (Ab) was performed in 10% horse serum with or without 1% BSA. Secondary antibodies (Either donkey anti mouse; donkey anti rabbit; donkey or rabbit anti-goat that are conjugated with fluorescent tags, Alexa 488 or Alexa 566 (Molecular Probes/Invitrogen) or with Cy3/donkey anti rabbit DyLight 488 (Jackson laboratories). Pictures were taken with a CCD camera and processed with an imaging program. Mouse monoclonal anti Sox17 Ab (R&D) 10 μg/ml was used with 0.1% Triton X100. Rabbit polyclonal anti FoxA2 (ab40874) (Abcam) was used at the dilution of 1/1000 with 0.1% Triton X100.

human insulin C-peptide = test: Content of human insulin C-peptide by ELISA in cell fractions
Experimental: On day 20, the medium used in step III of Example 2 was modified to adjust the glucose concentration to 5.5 mM (referred to herein as DM7). For isolation of EpCAM^+ cells by magnetic cell sorting (MACS technology, Miltenyi Biotec), a 10 cm-diameter plate was washed with PBS^−/− (no Ca^++, no Mg^++). Cells were then dissociated by treatment with Accutase (Stempro, 2.5 ml/10 cm plate), for 10 minutes at 37° C., and pipetting up and down. The cells were collected in DM7 and an aliquot counted in a NucleoCounter (New Brunswick). Cells were centrifuged at 1,500 rpm (350×g) for 5 minutes and re-suspended in MACS buffer (PBS^−/− with 0.5% BSA, 2 mM EDTA), using 0.3 ml for 50 million cells. Magnetic beads conjugated to anti-EpCAM antibodies (Miltenyi Biotec—CD326 pluripotent stem cells microbeads) were added (0.1 ml beads for 50 million cells). After 30 minutes at 4° C., the cells were washed once in 50 ml of MACS buffer, centrifuged, and finally re-suspended in 0.5 ml MACS buffer (for a maximum of 10^8 cells). […]
Aliquots of the Presort culture and of EpCAM-MACS-separated fractions (from step 7), as well as of re-aggregated clusters (step 8) were analyzed. The number of cells was counted, using the Nucleocounter. After centrifugation at 350×g for 5 minutes, cell pellets were dissolved in M-PER (Mammalian protein extraction reagent, Pierce), typically using 0.1 ml M-PER for 2 million cells, and content of human insulin C-peptide was measured with an ELISA kit (Mercodia, Upsalh, Sweden, ultrasensitive c-peptide kit (minimal detection 5 pM) or Mercodia c-peptide ELISA (minimal detection 90 pM). Samples in M-PER were diluted 3 fold, or more in the kit buffer, and 20 μl of the ⅓ dilution were assayed. Results were expressed per mg total protein (as measured by Bradford assay) and per million cells (counted in a NucleoCounter). […] Human insulin mRNA was quantitated by RT-qPCR (Taq-Man, Applied Biosystems, Step One) using the TATA binding protein (TBP) gene as reference. […]

Human insulin mRNA = Human insulin mRNA by RT-qPCR with TBP as reference
Experimental: Aliquots of the Presort culture and of EpCAM-MACS-separated fractions (from step 7), as well as of re-aggregated clusters (step 8) were analyzed. The number of cells was counted, using the Nucleocounter. After centrifugation at 350×g for 5 minutes, cell pellets were dissolved in M-PER (Mammalian protein extraction reagent, Pierce), typically using 0.1 ml M-PER for 2 million cells, and content of human insulin C-peptide was measured with an ELISA kit (Mercodia, Upsalh, Sweden, ultrasensitive c-peptide kit (minimal detection 5 pM) or Mercodia c-peptide ELISA (minimal detection 90 pM). Samples in M-PER were diluted 3 fold, or more in the kit buffer, and 20 μl of the ⅓ dilution were assayed. Results were expressed per mg total protein (as measured by Bradford assay) and per million cells (counted in a NucleoCounter). Other cell pellets were suspended in 0.7 ml buffer RLT (RNAeasy, Qiagen) per million cells, for RNA extraction. Human insulin mRNA was quantitated by RT-qPCR (Taq-Man, Applied Biosystems, Step One) using the TATA binding protein (TBP) gene as reference. In the same way, proteins and RNA were extracted from entire plates after scraping the cells with a rubber policeman.
Differentiation of hES cells towards a pancreatic lineage: The hES cell cultures were differentiated as detailed in Example 5 and FIG. 15, steps 1-8, and RNA extracted at different steps was subjected to RT-qPCR.
Human ES cells were differentiated according to the scheme illustrated in FIG. 22. Two modifications were made in the procedure detailed in Example 5. Thus, in step 2 and 3, the fetal calf serum was replaced by serum replacement (KOSR, Invitrogen), at the same concentrations (i.e. 2% in step 2, 0.2% in step 3). In addition, in step 5, Noggin (Preprotech) was added at 100 ng/ml. The EpCAM-MACS fractionation was performed as in Example 5.

[1] = five days Activin A conditioning, positive nuclei relative to DAPI nuclei (FIG. 1)

| Molecule | cells anti Oct4 positive (human ES cells; end of 5 days of Activin A treatment) [%] | cells expressing Sox17 and/or FoxA2 (human ES cells; end of 5 days of Activin A treatment, 100 ng/ml) | yield of cells expressing FoxA2 (human ES cells; [1]) [%] | yield of cells expressing Sox17 (human ES cells; [1]) [%] | Insulin C-peptide (human insulin C-peptide; Table 4 Expt 1, D 19 (EpCAM+)) [ng/mg protein] | Insulin C-peptide (human insulin C-peptide; Table 4 Expt 1, D 19 (Presort)) [ng/mg protein] | Insulin C-peptide (human insulin C-peptide; Table 4 Expt 1, D 23 (EpCAM+)) [ng/mg protein] | Ratio Insulin mRNA over TBP mRNA (Human insulin mRNA; Table 5 Expt 1, D 19 (EpCAM+)) | Ratio Insulin mRNA over TBP mRNA (Human insulin mRNA; Table 5 Expt 1, D 19 (Presort)) | Ratio Insulin mRNA over TBP mRNA (Human insulin mRNA; Table 5 Expt 1, D 23 (EpCAM+)) |
| --- | --- | --- | --- | --- | --- | --- | --- | --- | --- | --- |
| B1 | 5 | about 75% | 89 | 98 | – | – | – | – | – | – |
| B2 | – | – | – | – | 8.15 | 2.9 | 17.5 | 0.7 | 0.6 | 0.7 |
